Laboratory results from paper PMC9352680, “A comprehensive thermodynamic model for RNA binding by the Saccharomyces cerevisiae Pumilio protein PUF4”.
Changes are numbered by the printed parent chain. Names and notes keep the numbering of the source.

T1: PUF4 RNA-binding domain (Saccharomyces cerevisiae, UniProt P25339 537-888)
T1 sequence: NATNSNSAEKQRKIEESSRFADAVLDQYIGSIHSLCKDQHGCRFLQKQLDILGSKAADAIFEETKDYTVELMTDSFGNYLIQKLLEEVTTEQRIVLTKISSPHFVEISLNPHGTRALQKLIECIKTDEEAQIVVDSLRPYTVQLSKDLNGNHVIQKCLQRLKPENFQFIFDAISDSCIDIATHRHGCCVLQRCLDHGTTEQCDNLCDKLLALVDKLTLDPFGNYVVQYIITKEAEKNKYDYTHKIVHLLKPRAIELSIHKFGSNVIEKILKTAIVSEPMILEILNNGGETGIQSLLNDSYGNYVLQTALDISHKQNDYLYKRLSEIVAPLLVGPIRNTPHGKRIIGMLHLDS

B1: Id_iii_S2_P5E.5_K5.1_C5.3_H5.1_A5.1_F5.1_T5.2_[T11A] (ssRNA)
RNA: UUUGAUUAAUAUGAUAUCGUUCUUUCUUCUUGUAUUAUUAAAUUCUUUCUCGAUAUCAUAUUAAUCUUU
B2: Id_iii_S2_P5E.5_K5.1_C5.3_H5.1_A5.1_F5.1_T5.2_[A12T] (ssRNA)
RNA: B1 RNA with A41U, A42U
B3: Id_iii_S2_P5E.9_K5.5_C5.3_H5.1_A5.2_F5.2_T5.2_[A12C] (ssRNA)
RNA: B1 RNA with U35A, U38A, U39A, A41U, A42C
B4: Id_iii_S2_P5E.8_K5.4_C5.3_[T-3A]_H5.1_A5.2_F5.1_T5.2 (ssRNA)
RNA: B1 RNA with U28A, U35A, A41U
B5: Id_iii_S2_P5E.9_K5.5_C5.3_H5.1_A5.2_F5.2_T5.2_[A12T] (ssRNA)
RNA: B1 RNA with U35A, U38A, U39A, A41U, A42U
B6: Id_iii_S2_P5E.7_K5.3_C5.3_H5.3_A5.1_F5.1_T5.2_[T11C] (ssRNA)
RNA: B1 RNA with U31A, G32C, U33A, A34C, A41C
B7: Id_iii_S2_P5E.6_K5.2_C5.3_H5.2_A5.1_F5.1_T5.2_[A12T] (ssRNA)
RNA: B1 RNA with G32A, A41U, A42U
B8: Id_iii_S2_P5E.8_K5.4_C5.3_[C-2T]_H5.1_A5.2_F5.1_T5.2 (ssRNA)
RNA: B1 RNA with C29U, U35A, A41U
B9: Id_iii_S2_P5E.8_K5.4_C5.3_[T-3C]_H5.1_A5.2_F5.1_T5.2 (ssRNA)
RNA: B1 RNA with U28C, U35A, A41U
B10: Id_iii_S2_P5E.5_K5.1_C5.3_H5.1_A5.1_F5.1_T5.2_[A12G] (ssRNA)
RNA: B1 RNA with A41U, A42G
B11: Id_iii_S2_P5E.7_K5.3_C5.3_H5.3_A5.1_F5.1_T5.2_[A12C] (ssRNA)
RNA: B1 RNA with U31A, G32C, U33A, A34C, A41U, A42C
B12: Id_iii_S2_P5E.7_K5.3_C5.3_[T-1A]_H5.3_A5.1_F5.1_T5.2 (ssRNA)
RNA: B1 RNA with U30A, U31A, G32C, U33A, A34C, A41U
B13: Id_iii_S2_P5E.9_K5.5_C5.3_H5.1_A5.2_F5.2_T5.2_[A12G] (ssRNA)
RNA: B1 RNA with U35A, U38A, U39A, A41U, A42G
B14: Id_iii_S2_P5E.8_K5.4_C5.3_H5.1_A5.2_F5.1_T5.2_[A12C] (ssRNA)
RNA: B1 RNA with U35A, A41U, A42C
B15: Id_iii_S2_P5E.7_K5.3_C5.3_H5.3_A5.1_F5.1_T5.2_[A12T] (ssRNA)
RNA: B1 RNA with U31A, G32C, U33A, A34C, A41U, A42U
B16: Id_iii_S2_P5E.7_K5.3_C5.3_[C-2G]_H5.3_A5.1_F5.1_T5.2 (ssRNA)
RNA: B1 RNA with C29G, U31A, G32C, U33A, A34C, A41U
B17: Id_iii_S2_P5E.5_K5.1_C5.3_H5.1_A5.1_F5.1_T5.2_[A12C] (ssRNA)
RNA: B1 RNA with A41U, A42C
B18: Id_iii_S2_P5E.8_K5.4_C5.3_[C-2A]_H5.1_A5.2_F5.1_T5.2 (ssRNA)
RNA: B1 RNA with C29A, U35A, A41U
B19: Id_iii_S2_P5E.7_K5.3_C5.3_[T-3A]_H5.3_A5.1_F5.1_T5.2 (ssRNA)
RNA: B1 RNA with U28A, U31A, G32C, U33A, A34C, A41U
B20: Id_iii_S2_P5E.8_K5.4_C5.3_H5.1_A5.2_F5.1_T5.2_[A12G] (ssRNA)
RNA: B1 RNA with U35A, A41U, A42G
B21: Id_iii_S2_P5E.7_K5.3_C5.3_[T-1C]_H5.3_A5.1_F5.1_T5.2 (ssRNA)
RNA: B1 RNA with U30C, U31A, G32C, U33A, A34C, A41U
B22: Id_iii_S2_P5E.7_K5.3_C5.3_[T-1G]_H5.3_A5.1_F5.1_T5.2 (ssRNA)
RNA: B1 RNA with U30G, U31A, G32C, U33A, A34C, A41U
B23: Id_iii_S2_P5E.8_K5.4_C5.3_H5.1_A5.2_F5.1_T5.2_[A12T] (ssRNA)
RNA: B1 RNA with U35A, A41U, A42U
B24: Id_iii_S2_P5E.7_K5.3_C5.3_[C-2A]_H5.3_A5.1_F5.1_T5.2 (ssRNA)
RNA: B1 RNA with C29A, U31A, G32C, U33A, A34C, A41U
B25: Id_iii_S2_P5E.8_K5.4_C5.3_[C-2G]_H5.1_A5.2_F5.1_T5.2 (ssRNA)
RNA: B1 RNA with C29G, U35A, A41U
B26: Id_iii_S2_P4E.7_K4.3_C4.3_[T-1C]_H4.3_A4.1_F4.1_T4.2 (ssRNA)
RNA: UUUGAUUAAUAUGAUAUCGUUCUUUCUUCCACACUAUUAGUUUCUUUCUCGAUAUCAUAUUAAUCUUU
B27: Id_iii_S2_P4E.7_K4.3_C4.3_H4.3_A4.1_F4.1_T4.2_[G10C] (ssRNA)
RNA: B26 RNA with C30U, G40C
B28: Id_iii_S2_P4E.8_K4.4_C4.3_[C-2T]_H4.1_A4.2_F4.1_T4.2 (ssRNA)
RNA: B26 RNA with C29U, C30U, A31U, C32G, A33U, C34A, A36U
B29: Id_iii_S2_P4E.9_K4.5_C4.3_[T-1G]_H4.1_A4.2_F4.2_T4.2 (ssRNA)
RNA: B26 RNA with C30G, A31U, C32G, A33U, C34A, A36U, U38A
B30: Id_iii_S2_P4E.7_K4.3_C4.3_H4.3_A4.1_F4.1_T4.2_[T11C] (ssRNA)
RNA: B26 RNA with C30U, U41C
B31: Id_iii_S2_P4E.8_K4.4_C4.3_[T-3C]_H4.1_A4.2_F4.1_T4.2 (ssRNA)
RNA: B26 RNA with U28C, C30U, A31U, C32G, A33U, C34A, A36U
B32: Id_iii_S2_P4E.9_K4.5_C4.3_H4.1_A4.2_F4.2_T4.2_[G10C] (ssRNA)
RNA: B26 RNA with C30U, A31U, C32G, A33U, C34A, A36U, U38A, G40C
B33: Id_iii_S2_P4E.8_K4.4_C4.3_H4.1_A4.2_F4.1_T4.2_[G10C] (ssRNA)
RNA: B26 RNA with C30U, A31U, C32G, A33U, C34A, A36U, G40C
B34: Id_iii_S2_P4E.8_K4.4_C4.3_H4.1_A4.2_F4.1_T4.2_[T11C] (ssRNA)
RNA: B26 RNA with C30U, A31U, C32G, A33U, C34A, A36U, U41C
B35: Id_iii_S2_P4E.7_K4.3_C4.3_[T-1A]_H4.3_A4.1_F4.1_T4.2 (ssRNA)
RNA: B26 RNA with C30A
B36: Id_iii_S2_P4E.7_K4.3_C4.3_H4.3_A4.1_F4.1_T4.2_[G10T] (ssRNA)
RNA: B26 RNA with C30U, G40U
B37: Id_iii_S2_P4E.9_K4.5_C4.3_[T-1A]_H4.1_A4.2_F4.2_T4.2 (ssRNA)
RNA: B26 RNA with C30A, A31U, C32G, A33U, C34A, A36U, U38A
B38: Id_iii_S2_P4E.8_K4.4_C4.3_[C-2G]_H4.1_A4.2_F4.1_T4.2 (ssRNA)
RNA: B26 RNA with C29G, C30U, A31U, C32G, A33U, C34A, A36U
B39: Id_iii_S2_P4E.8_K4.4_C4.3_H4.1_A4.2_F4.1_T4.2_[G10T] (ssRNA)
RNA: B26 RNA with C30U, A31U, C32G, A33U, C34A, A36U, G40U
B40: Id_iii_S2_P4E.8_K4.4_C4.3_[C-2A]_H4.1_A4.2_F4.1_T4.2 (ssRNA)
RNA: B26 RNA with C29A, C30U, A31U, C32G, A33U, C34A, A36U
B41: Id_iii_S2_P4E.8_K4.4_C4.3_[T-1A]_H4.1_A4.2_F4.1_T4.2 (ssRNA)
RNA: B26 RNA with C30A, A31U, C32G, A33U, C34A, A36U
B42: Ic_S2_P3E.1_K3.1_C3.1_H3.1_A3.1_F3.1_[A8G]_T3.1 (ssRNA)
RNA: UUUGAUUAAUAUGAUAUCGUUCUUUCUUGUAUAUGUUCUUUCUCGAUAUCAUAUUAAUCUUU

These binders were tested against T1, PUF4 RNA-binding domain (assay: Mg; RNA-MaP; 20 mM Na-HEPES pH 7.4, 30 mM KOAc, 0.75 mM MgCl2, 0.1% Tween-20, 5% glycerol, 0.1 mg/mL BSA, 2 mM DTT; 25 C; 0.0125-409.6 nM protein). Conditions: tags: N-His6-TEV cleaved; C-SNAP kept, Cy3B-labelled; label: tethered on chip by stalled RNA polymerase.

Binder | Kd
UCUCUUUGUAGCAUUAUCUCUU (ssRNA) [Ib_S1_P5E.1_K5.1_C5.1_H5.1_A5.1_[T5G]_[T6C]_F5.1_T5.1] | 15.3 nM
ACAAACCCUUAUAUAUAUAACAAAC (ssRNA) [Id_iii_S3_P3E.6_K3.2_C3.3_[T-3C]_H3.2_A3.1_F3.1_T3.2] | 446 nM
ACAAACUCUACACUAUAUUACAAAC (ssRNA) [Id_iii_S3_P3E.7_K3.3_C3.3_H3.3_A3.1_F3.1_T3.2_[A10T]] | 922 nM
ACAAACUUUUAUAUAUAUAACAAAC (ssRNA) [Id_iii_S3_P3E.6_K3.2_C3.3_[C-2T]_H3.2_A3.1_F3.1_T3.2] | 598 nM
B1 | 3.88 nM
B2 | 1.59 nM
B3 | 146 nM
B4 | 8.09 nM
B5 | 158 nM
B6 | 1770 nM
B7 | 42.1 nM
B8 | 8.91 nM
B9 | 5.82 nM
B10 | 2.58 nM
B11 | > 2300 nM
B12 | 823 nM
B13 | 189 nM
B14 | 3.6 nM
B15 | 2160 nM

Binder | Kd
B16 | 2.01 nM
B17 | 1.64 nM
B18 | 40.3 nM
B19 | 709 nM
B20 | 6.61 nM
B21 | 838 nM
B22 | 963 nM
B23 | 2.65 nM
B24 | 579 nM
B25 | 15.4 nM
UCUCUUUGUAAAAUUAUCUCUU (ssRNA) [Ib_S1_P5E.1_K5.1_C5.1_H5.1_A5.1_[T5A]_[T6A]_F5.1_T5.1] | 10.6 nM
B26 | > 2300 nM
B27 | 494 nM
B28 | 0.936 nM
B29 | 502 nM
B30 | > 2300 nM
B31 | 0.923 nM
B32 | 77.5 nM
B33 | 2.77 nM

Binder | Kd
B34 | 1.42 nM
B35 | > 2300 nM
B36 | 486 nM
B37 | 554 nM
B38 | 1.45 nM
B39 | 0.967 nM
B40 | 1.76 nM
B41 | 1.28 nM
B42 | 11.7 nM
UCUCUUUGUAACAUUAUCUCUU (ssRNA) [Ib_S1_P5E.1_K5.1_C5.1_H5.1_A5.1_[T5A]_[T6C]_F5.1_T5.1] | 4.31 nM
ACAAACUCCACACUAUUAGUACAAAC (ssRNA) [Id_iii_S3_P4E.7_K4.3_C4.3_[T-1C]_H4.3_A4.1_F4.1_T4.2] | > 2300 nM
UCUCUUUGUACAAUUAUCUCUU (ssRNA) [Ic_S1_P5E.1_K5.1_C5.1_H5.1_A5.1_[T5C]_[T6A]_F5.1_T5.1] | 5.07 nM
ACAAACUAUACACUAUAUAACAAAC (ssRNA) [Id_iii_S3_P3E.7_K3.3_C3.3_[C-2A]_H3.3_A3.1_F3.1_T3.2] | 32.5 nM
ACAAACUCUUAUAUAUACAACAAAC (ssRNA) [Id_iii_S3_P3E.6_K3.2_C3.3_H3.2_A3.1_F3.1_T3.2_[T9C]] | 693 nM
UCUCUUGGUAUAUAUCUCUU (ssRNA) [Ia_S1_P3E.1_K3.1_C3.1_H3.1_[T1G]_A3.1_F3.1_T3.1] | 2290 nM
ACAAACUCAACACUAUAUAACAAAC (ssRNA) [Id_iii_S3_P3E.7_K3.3_C3.3_[T-1A]_H3.3_A3.1_F3.1_T3.2] | 1780 nM
ACAAACUCCUAUAUAUAUAACAAAC (ssRNA) [Id_iii_S3_P3E.6_K3.2_C3.3_[T-1C]_H3.2_A3.1_F3.1_T3.2] | 218 nM
UCUCUUUGUACGAUUAUCUCUU (ssRNA) [Ib_S1_P5E.1_K5.1_C5.1_H5.1_A5.1_[T5C]_[T6G]_F5.1_T5.1] | 9.71 nM
ACAAACACUACACUAUAUAACAAAC (ssRNA) [Id_iii_S3_P3E.7_K3.3_C3.3_[T-3A]_H3.3_A3.1_F3.1_T3.2] | 760 nM
